Source: doi:10.1101/2023.06.02.543398 (bioRxiv, 2023)
Ends that are not written are not given here.

B1: MAP7 MT-binding domain (MTBD), residues 59-170 (domain or fragment)
chain: PVLRVDDRQRLARERREEREKQLAAREIVWLEREERARQHYEKHLEERKKRLEEQRQKEERRRAAVEEKRRQRLEEDKERHEAVVRRTMERSQKPKQKHNRWSWGGSLHGSP

Legend:
[1] = target: Taxol-stabilized microtubules from lyophilized tubulin (Cytoskeleton, Inc.) (UniProt P02550 1-451; P02554 1-445); assay: ITC
[2] = target: B1; assay: fluorescence polarisation

Taxol-stabilized microtubules from lyophilized tubulin (Cytoskeleton, Inc.), sequence (P02550 whole entry, chain 1 of 2): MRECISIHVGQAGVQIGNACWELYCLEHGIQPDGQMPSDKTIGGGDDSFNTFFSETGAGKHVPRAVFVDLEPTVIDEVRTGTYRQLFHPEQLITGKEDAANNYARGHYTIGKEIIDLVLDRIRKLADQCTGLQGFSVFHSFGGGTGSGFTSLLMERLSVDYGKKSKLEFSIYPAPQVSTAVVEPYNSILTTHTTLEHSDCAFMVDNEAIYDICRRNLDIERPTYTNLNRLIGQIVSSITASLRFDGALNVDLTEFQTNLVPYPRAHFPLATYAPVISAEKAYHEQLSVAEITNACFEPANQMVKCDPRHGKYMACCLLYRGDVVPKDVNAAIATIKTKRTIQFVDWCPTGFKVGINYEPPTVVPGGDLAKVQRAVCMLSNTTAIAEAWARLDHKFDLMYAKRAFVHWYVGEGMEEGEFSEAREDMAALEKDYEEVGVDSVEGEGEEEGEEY
Taxol-stabilized microtubules from lyophilized tubulin (Cytoskeleton, Inc.), sequence (P02554 whole entry, chain 2 of 2): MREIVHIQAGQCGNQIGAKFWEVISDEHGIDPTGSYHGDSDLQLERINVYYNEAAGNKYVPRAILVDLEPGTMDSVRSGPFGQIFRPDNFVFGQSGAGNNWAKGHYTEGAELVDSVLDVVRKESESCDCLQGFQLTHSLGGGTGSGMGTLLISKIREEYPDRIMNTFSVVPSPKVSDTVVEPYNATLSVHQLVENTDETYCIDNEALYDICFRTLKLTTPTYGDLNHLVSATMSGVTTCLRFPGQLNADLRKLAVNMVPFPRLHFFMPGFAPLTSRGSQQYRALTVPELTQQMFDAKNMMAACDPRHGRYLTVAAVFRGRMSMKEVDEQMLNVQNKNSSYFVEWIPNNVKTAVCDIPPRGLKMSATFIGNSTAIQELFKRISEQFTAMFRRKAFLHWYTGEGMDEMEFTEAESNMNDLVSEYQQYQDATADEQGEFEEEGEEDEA

Row | Binder | Kd [1] [µM] | stoichiometry N [1] | Kd [2] [µM]
1 | B1 | 0.94 | 0.51 ± 0.09 MAP7 MTBD to tubulin | 
2 | SVEGEGEEEGEEY (also: NHS-fluorescein label, position not given here) [NHS-fluorescein-labelled α-tubulin carboxy-terminal tail peptide] |  |  | 91.3 ± 17.5
